This note sets out measurements from the nanobody polyreactivity screen of Harvey et al. (2022).

The series can be described thus: yeast display, Sf9 membrane polyspecificity reagent, FACS + sequencing; frameworks hold sequencing errors. The method, boiled down:
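Synthetic nanobody libraries on Saccharomyces cerevisiae BJ5465 were galactose-induced for 36–48 hours, stained 1 hour at 4 °C with 10% biotinylated, detergent-solubilized Sf9 membrane reagent and enriched on streptavidin microbeads. FACS then separated cells into low and high (top ~1%) gates by anti-HA (expression) and streptavidin (reagent binding) fluorescence. Genes were colony-PCR amplified, MiSeq 2 × 250 sequenced and CDR-length filtered. A clone's polyreactivity label is that of its gate of origin.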
As to “QVQLVESGGGLVQAGGSLRLSCAASGSIFYGHAMGWYRQAPGKERELVATISWSTGSTYYADSVKGRFTISRDHAKNTVYLQMNSLKPEDTAVYYCAKEYFSKQWRGGYWGQGTQVTVSS”, the “polyreactivity (PSR sort gate)” value was “high polyreactivity”.
As for “QVQLLESGGGLVQAGGSLRLSCAASGYTFKAYAMGWYRQAPGKERELVAAISRGGRTNYADSVKGRFTISRDNAKYTVYLQMNSLKPEDTAVYYCNTQRQLGERFYDRSRQGDYWGHGTQVTVSS”, the “polyreactivity (PSR sort gate)” value is listed as “high polyreactivity”.
Regarding “QVQLVESGGGLVQAGGSLRLSCAASGITFSGNAMGWYRQAPGKERELVAAISGRGGSTYYADSVKGRFTISRDNAKNTVYLQMNSLKPEDTAVYYCAARVPSPYVATYYYWGQGTQVTVSS”, the “polyreactivity (PSR sort gate)” value is “high polyreactivity”.
“QVQLVESGGGLVQAGGSLRLSCAASGITFKAYAMGWYRQAPGKERELVAAINTSGARTYYADSVKGRFTISRDNAKNTVYLQMNSLKTEDTAVYYCNARLHQQEGDDWGQGTQVTVSS”: the “polyreactivity (PSR sort gate)” value was “low polyreactivity”.
As for “QVQLEESVGGLVQAGRSLRLSCASSGTTFYYYALGWYRQAPGKERELVATIDSGTSTYYADSVKGRFTISRDNAKNTVYLQMNSLKPEDTAVYYCAAKTWSWSYGYNYWGQGTQVTVSS”, the “polyreactivity (PSR sort gate)” value is given as “low polyreactivity”.
As for “QVQLVDSGGGLVQAGGSLRLSCAASGFTFYAYGRGWNRQAPGKERELVATITWCGGNTYYADSVKGRFTISRDNAKNTVYLQMNSLKPEDTAVYYCAARLPSPIRPSRGYYDYWGQGTQVTVSS”, the “polyreactivity (PSR sort gate)” value is “low polyreactivity”.
“QVQLVESGGGLVQAGGSLRLSCAASGRIFTTNTMGWYRQAPGKERELVARITYSGTSTYYADSVKGRFTISRDNAKNTVYLQMNSLKPEDTAVYYCAAKVWWRKYLLQDYYYWGQGTQVTVSS”: the “polyreactivity (PSR sort gate)” value is “high polyreactivity”.
Take “QVQLVESGGGLVQAGGSLRLICAASGSTFYKYNMGWYRQAPGKERELVAAISGSGTTTYYADTVKGRFTISRDNAKNTVYLQMNSLKPEDTAVYYCAARRFSPGSSGHGYWGQGTQVTVSS”: the “polyreactivity (PSR sort gate)” value is listed as “high polyreactivity”.
“QVQLVESGGGLVQAGGSLRLSCAASGSIIRHNVMVWYRQAPGKERELVAAISGGGGRTYYADSVKGRFTISRDNAKNTVSLQMNRLKPEDTAVYYCNAYVGLSEGDYWGQGTQVTVSS”: the “polyreactivity (PSR sort gate)” value is “high polyreactivity”.
Consider “QVQLVESGGGLVQAVGSLRLSSAASGFIFWYYAMGWYRQAPGKERELVAAISSGGGTNYADSVKGRFTISRDNAKNTVYLQMNSLKPEDYAVYYCAAYGPLTGYDYWGQGTQVTVSS”, for which the “polyreactivity (PSR sort gate)” value is given as “low polyreactivity”.
For “QVQLVESGGGLVQAGGSLRLSCAASGRIFYIYAMGWYRQAPGKERELVATISVSGGRTYYADSVKGRFTISRDNAKNTVYLHMNSLKPEDTAVYYCAKEGRFNIHKWYDYWGQGTQVTVSS”, the “polyreactivity (PSR sort gate)” value is reported as “low polyreactivity”.
With “QVQLVESGGGLVQAGGSLRLSCAASGSIFASNAMGWYRQAPGKERELVAAINSGDSTNYADSVKGRFTISRDNAKNTVYFQMNSLKPEDTAVYYCARGLEERYDYWGQGTQVTVSS”, the “polyreactivity (PSR sort gate)” value was “low polyreactivity”.
The result for “QVQLVDSGGGLVQAGGSLRLSCAASGSTFRGNAMGWSRQAPGKERELVAAISASGGRTYYADSVKGRFTISRDNAKNTVYLQMNSLKPEETAVYYCAVRDQTDKVPFYYWGQGTQVSVSS” reads “high polyreactivity”; that for “QVQLVESGGGLVQAGGSLRLSCAASGSTFLYYAMGWYRQAPGKERELVASITRRGGRTYYADSVKGRFTISRDNAKNTVYLQMNSLKPVDTAVYYCNAVYGRQYRGYNYKFFYWGQGTQVTVSS”, “high polyreactivity”; that for “QVQLVESGGGLVQAGGSLRLSCAASGSIFSRNTLGWYRQAPGKERELVAAITRGGSTDYADSVKGRFTISRDNAKNTVYLQMNSLKPEDTAVYYCAKKTPGWGKFDYWGQGTQVTVSS”, “low polyreactivity”.
The result for “QVQLVESGGGLVQAGGSLRFSCAASGTFVPYAMGWYRQAPGKEMELVARITWRGGSTYYADSVKGRFTISRDNAKNTVDLQLNSLKPEDTAVYYCATVSDNRYYYWGQGTQVTVSS” reads “low polyreactivity”; that for “QVQLVESGGGLVQAGGSLRLSCAASGRTYWHNTMGWYRQAPGKERELVAAINGGGGSTYYADSVKGRFTISRDNAKNTVYLQMNSLKPEDTAVYYCSARQGVVKGGRGYGYWGQGTQVTVSS”, “high polyreactivity”; that for “QVKLLDSGGGLVQAGGSLRLTSAASGRIFYTNAMGWYRQEPGKERELVAVISWGGDTTYYADSVKGRFTISRDNAKNTVYLQMTSLKPEDTAVYYCNADWGATYEIYDSWGQGTQVTVST”, “low polyreactivity”.
The result for “QDQLVESGGGLVQAGGSLRLSCDASGYIFQSNVLGWYRQAPGKERELVAAITVSGGSTYYADSVKGRFTISRDNAKNTVYLQMNSLKPEDTAVYYCAALVAHKGDYWGQGTQVTVSS” reads “high polyreactivity”; that for “QVQLVESGGGLVQAGGSLRLSCAASGSTFNHYAMGWYRQAPGKERELVAAITKSGGSTYADSVKGRFTISRDNAKNTVYIQMNSLKPEDTAVYYCAAGRRKYGTKGRGDYWGQGTQVTVSS”, “low polyreactivity”; that for “QVQLVESGGGLVQAGGSLRLSCAASGYIFSDNTMGWYRQAPGKERELVAVITSGTSTSYADSVKGRFTISRDNAKNTVYLQMNSLKPEDTAVYYAARTGQYKTYGEYDYWGQGTQVTVSS”, “low polyreactivity”.
For the sequence “QVQLVESGGGLVQAGGSLRLSSAASGRIFGKYAMGWYRQAPGKERELVAAIRITGGSTYYADSVKGRFTISRDNAKNTVYLQMNSLKPEDTAVYYSAAVYKYADVIYDYWGQGTQVTVSS”, the “polyreactivity (PSR sort gate)” value is recorded as “high polyreactivity”.
For the sequence “QVQLVESGGGLVQAGGSLRLSCAASGRIFFVYAMGWYRQAPGKERELVAGIRSSGGSTYYADSVKGRFTISRDNAKKTVYLQMNSLKPEDTAVYYCAARRVGYPSPYSTYGMYYWGQGTQVTVSS”, the “polyreactivity (PSR sort gate)” value is on record as “high polyreactivity”.
The result for “QVQLVESGGGLVQAGGSLRLSCAASGRIFSSYDMGWYRQAPGKEPELVAAISRSGARTYYADSVKGRFTISRDNAKNTVYLQMNSLKPEDTAVYYCAAEFRSWGGYRYRFNYWGQGTQVTVSS” reads “high polyreactivity”.
With “QVQLVESGGGLVQAGGSLRLSCAASGYMFGGYAMGWYRQAPGKAREFVAAISDISGSTYYADSVKGRFTISRDNAKNTVYLQMNSLKPEDTAVYYGGHTSTADEDYWGQGTQVTVSS”, the “polyreactivity (PSR sort gate)” value is “low polyreactivity”.
Consider “QVQLVESGGGLVQAGGSLRLSCAASVSIFARYAMGWYRQAPGKERELVAAITSGTSTNYADSVKGRFTISRDNAKNSVYLQMNSLKPEDTAVYYCNARHTWHQTYDYCGQGTQVTVSS”, for which the “polyreactivity (PSR sort gate)” value is listed as “low polyreactivity”.
Turning to “QVQLVESVGGLVQAGGSLRLSCAASGFIFPYYVMGWYRQAPGKERELVAAITSVGITYYADSVKGRFTISRDNAKNTVYLQMNSLKPEDTAVYYCAADYKYFYDWGSFVEDEYWGQGTQVTVSS”, the “polyreactivity (PSR sort gate)” value was “high polyreactivity”.
Turning to “QVQLVESRGGLVQAGGSLRLSFPASGFTQEFYAMGWYRQAPGKERELVASISSGGRTNYADSVKGRFTISRDNAKYTVYLQMNSLKPEDTAVYYFAAEYRSWGRYRYRFNYWGQGTQVTVSS”, the “polyreactivity (PSR sort gate)” value was “high polyreactivity”.
“QVQLVESGGGLVQAGGSLRISFAASGYIFYNYARRSYRQAPGKERELLAAMTRGGSTNYADSVKGRFTISRDNAQNTVYLQMNSLKPEDTAGYYCAAEEGPPWSRYDSWGQGTQVTVSS”: the “polyreactivity (PSR sort gate)” value is listed as “low polyreactivity”.
As for “QVQLVESGGGLVQAGGSLRLSCAASGSIFVGYDMGWYRQAPGKARELVAAITRDGDTNYADSVKGRFTISRDNAKNTVYLQMNSLKPEDTAVYYCAADRWLYSWFFNYDQGDYWGQGTQVTVSS”, the “polyreactivity (PSR sort gate)” value is “low polyreactivity”.
Take “QVQLEESGGGVVQAGGSLRLSCAASGGTFSRYAMGWYRQATGKERELVAAITRSGASTFYADSVKGRFTISRDNAKNTVYLQMNSLKPEDTAVYYCAADTYVYNEYDYWGQGTQVTVSS”: the “polyreactivity (PSR sort gate)” value is “high polyreactivity”.
“QVQLVESGGGLVQAGGSLRLSCAASGSIFIGNTMGWYRQAPGKERELVATIRRSGSRTYDADSVKGRFTISRDNAKNTVYLQMNSLKPEDTAVYYCAADRLRTSGYKTIYDYWGQGTQVTVSS”: the “polyreactivity (PSR sort gate)” value is “low polyreactivity”.
As for “QVQLVESGGGLVQAGGSLRLSCAASGSTFIWNGMGWYRQAPGKERELVAAITSSSTNYADSVKGRFTISRDNAKNTVYLQMNSLKPEDTAVYYCAAEIYPLGSLRLGPGEYDHWGQGTQVTVSS”, the “polyreactivity (PSR sort gate)” value is reported as “low polyreactivity”.
With “QVQLVESGGGLVQAGGSLRLSCAASGFTFRYYAMGWYRQAPGKEREFVAAIRRSGANTYYADSVKGRFTISRDNAKNTVYLQMNSLKPEDTAVYYCGTRLRGSGRLYNYWGQGTQVTVSS”, the “polyreactivity (PSR sort gate)” value is given as “high polyreactivity”.
To “QVQLQESGGGLVQAGGSLRQSYAASGYIFPSLAMGWYRQAPGKEREFVAAIGRGSTNNYADSVKGRFTISRDNAKNTAFQHMKSLKPEDTAVYYCAAAASPLTRHLYWGQGTQVSVSS” belongs “low polyreactivity”; to “QVQIVESGGGLVQAGGSLSLSCAASGRTISWYTMGWYRQAPGKERELVAGISSSGGSTYYADSVKGRFTISRDNAKNTVYLQLNSLKPEDTADYFCAAGDFRYVDRYGDMEYWGQGTQVTVSS”, “low polyreactivity”; to “QVQLQECGGGLVQAGGSLRLSCAASGTFSNSVKWLYCQAPGKEREFVATIGVGGSTNYADSVIGRFTISRDNAKNTVYLQMNSRKQEDTAVYHCAAYGAASNFHYYRGQGTQVTVSS”, “low polyreactivity”.
To “QVQLVESGGGLVQAGGSLRLSSAASGRIFYQYAMGWYRQAPGKERELVASISRSGTRTYYADSVKGRFTISRDNAKNTVYLQMISLKPEDTAVYYCAARGRASVERRGGYYYWGQGTQVTVSS” belongs “high polyreactivity”; to “QVQLEESGGGLVQAGGSLRLSCAASGFTFVSYAMGWYRQAPGKERELVAAISRRGGRTYYADSVKGRFTISRDNAKNTVYLQMNSLKPEDTAVYYCNKDYYGSPSSYYWYDYWGQGTQVTVSS”, “high polyreactivity”; to “QVQLVESGGGLVQAGGSLRLSCAASGRIFAWYAMGWYRQAPGKERELVAGISWIGGSTYYADSVKGRFTISRDNAKNTVYLQMNSLKPEDTAVYYCNARKKPGSRLDIIGYDYWGQGTQVTVSS”, “low polyreactivity”.
For “QVQLVESGGGLVQAGGSLRLSCAASGSIFVRNAMGWYRPAPGKERELVADITSRGSSTYYADSVKGRFTISRDNAKNTVYLQMNSLKPEDTAVYYCNAVRYYVRTYIYRHDRGMDYWGQGTQVTVSS”, the “polyreactivity (PSR sort gate)” value is “low polyreactivity”.
